Data taken from US5607847.

Molecular target: gp120 of HIV-1 strain IIIB (HIV-1 IIIB)

B1: murine monoclonal antibody NM-01 (antibody, V domains shown)
VH: QIQLKESGPAVIKPSQSLSLTCIVSGFSITSSSYCWHWIRQPPGKGLEWMGRICYEGSIDYSPSIKSRSTISRDTSLNRFFIQLSSVTNEDTAMYYCSRENHGTTTSMDYWGQGTSVTVSS
VL: DIVLTQSPASLAVSLGQRATISCRASESVDSYGNSFMHWYQQKPGQSPKLLIYVASNLESGVPARFSGSGSRTDFTLTIDPVEADDAATYYCQQNNEDPLTFGAGTKLELK
  50% neutralization by the p24 assay: 0.15 µg/mL
  ID50 (reverse transcriptase assay): 0.2 µg/mL
